Laboratory results as given in patent US20190321478A1 (published 2019).

T1: PTRF (peptide code PTRF-001) peptide on HLA-A*02:01 (human)
T1 peptide: KLLEKVRKV

T2: GALNTL4 (peptide code GALNTL4-001) peptide on HLA-A*02:01 (human)
T2 peptide: KLTEYVDKV

T3: TMEM175 (peptide code TMEM175-001) peptide on HLA-A*02:01 (human)
T3 peptide: ILLPYVSKV

T4: NSD1 (peptide code NSD1-001) peptide on HLA-A*02:01 (human)
T4 peptide: KVQEQVHKV

T5: EPAS (peptide code EPAS-001) peptide on HLA-A*02:01 (human)
T5 peptide: KALEGFIAV

T6: TMTC4 (peptide code TMTC4-001) peptide on HLA-A*02:01 (human)
T6 peptide: NVLEIVQKV

T7: PSME2 (peptide code PSME2-001) peptide on HLA-A*02:01 (human)
T7 peptide: KVLERVNAV

T8: RASAL2 (peptide code RASAL2-002) peptide on HLA-A*02:01 (human)
T8 peptide: SVLEPVISV

T9: TBC1D9 (peptide code TBC1D9-002) peptide on HLA-A*02:01 (human)
T9 peptide: LLLPDVIKV

T10: KIAA103 (peptide code KIAA103-002) peptide on HLA-A*02:01 (human)
T10 peptide: KVLNKVITV

T11: MAGEA1 (peptide MAGEA1-003) peptide on HLA-A*02:01 (human)
T11 peptide: KVLEYVIKV


Assays:
[1] = target: T1, PTRF (peptide code PTRF-001) peptide on …; assay: cytokine release
[2] = target: T2, GALNTL4 (peptide code GALNTL4-001) …; assay: cytokine release
[3] = target: T3, TMEM175 (peptide code TMEM175-001) …; assay: cytokine release
[4] = target: T4, NSD1 (peptide code NSD1-001) peptide on …; assay: cytokine release
[5] = target: T5, EPAS (peptide code EPAS-001) peptide on …; assay: cytokine release
[6] = target: T6, TMTC4 (peptide code TMTC4-001) peptide …; assay: cytokine release
[7] = target: T7, PSME2 (peptide code PSME2-001) peptide …; assay: cytokine release
[8] = target: T8, RASAL2 (peptide code RASAL2-002) …; assay: cytokine release
[9] = target: T9, TBC1D9 (peptide code TBC1D9-002) …; assay: cytokine release
[10] = target: T10, KIAA103 (peptide code KIAA103-002) …; assay: cytokine release
[11] = target: T11, MAGEA1 (peptide MAGEA1-003) peptide on …; assay: multimer staining

| Binder | binding result [1] | binding result [2] | binding result [3] | binding result [4] | binding result [5] | binding result [6] | binding result [7] | binding result [8] | binding result [9] | binding result [10] | binding result [11] |
| --- | --- | --- | --- | --- | --- | --- | --- | --- | --- | --- | --- |
| R59P2E7 (TCR, V domains shown) Valpha: KQEVTQIPAALSVPEGENLVLNCSFTDSAIYNLQWFRQDPGKGLTSLLLIQSSQREQTSGRLNASLDKSSGRSTLYIAASQPGDSATYLCAVNSDYKLSFGAGTTVTVRA Vbeta: AAGVIQSPRHLIKEKRETATLKCYPIPRHDTVYWYQQGPGQDPQFLISFYEKMQSDKGSIPDRFSAQQFSDYHSELNMSSLELGDSALYFCASSLGLGTGDYGYTFGSGTRLTVV | no recognition | no recognition | no recognition | no recognition | no recognition | no recognition | no recognition | no recognition | no recognition | no recognition | recognises |
| R26P1A9 (TCR, V domains shown) Valpha: SQQGEEDPQALSIQEGENATMNCSYKTSINNLQWYRQNSGRGLVHLILIRSNEREKHSGRLRVTLDTSKKSSSLLITASRAADTASYFCLIGASGSRLTFGEGTQLTVNP Vbeta: DAGVIQSPRHEVTEMGQEVTLRCKPISGHDYLFWYRQTMMRGLELLIYFNNNVPIDDSGMPEDRFSAKMPNASFSTLKIQPSEPRDSAVYFCASSYFGWNEKLFFGSGTQLSVL | no recognition | no recognition | no recognition | no recognition | no recognition | no recognition | no recognition | no recognition | no recognition | no recognition | recognises |
| R26P2A6 (TCR, V domains shown) Valpha: QKEVEQDPGPLSVPEGAIVSLNCTYSNSAFQYFMWYRQYSRKGPELLMYTYSSGNKEDGRFTAQVDKSSKYISLFIRDSQPSDSATYLCAMSDVSGGYNKLIFGAGTRLAVHP Vbeta: EAQVTQNPRYLITVTGKKLTVTCSQNMNHEYMSWYRQDPGLGLRQIYYSMNVEVTDKGDVPEGYKVSRKEKRNFPLILESPSPNQTSLYFCASTTPDGTDEQFFGPGTRLTVL | no recognition | no recognition | no recognition | no recognition | no recognition | no recognition | no recognition | no recognition | no recognition | no recognition | recognises |

Further lines, results first:

| binding result [1] | binding result [2] | binding result [3] | binding result [4] | binding result [5] | binding result [6] | binding result [7] | binding result [8] | binding result [9] | binding result [10] | binding result [11] | Binder |
| --- | --- | --- | --- | --- | --- | --- | --- | --- | --- | --- | --- |
| no recognition | no recognition | no recognition | no recognition | no recognition | no recognition | no recognition | no recognition | no recognition | no recognition | recognises | R26P3H1 (TCR, V domains shown) Valpha: AQSVAQPEDQVNVAEGNPLTVKCTYSVSGNPYLFWYVQYPNRGLQFLLKYITGDNLVKGSYGFEAEFNKSQTSFHLKKPSALVSDSALYFCAVRDMNRDDKIIFGKGTRLHILP Vbeta: DGGITQSPKYLFRKEGQNVTLSCEQNLNHDAMYWYRQDPGQGLRLIYYSQIVNDFQKGDIAEGYSVSREKKESFPLTVTSAQKNPTAFYLCASSRAEGGEQYFGPGTRLTVT |
| no recognition | no recognition | no recognition | no recognition | no recognition | no recognition | no recognition | no recognition | no recognition | no recognition | recognises | R37P1H1 (TCR, V domains shown) Valpha: AQTVTQSQPEMSVQEAETVTLSCTYDTSESNYYLFWYKQPPSRQMILVIRQEAYKQQNATENRFSVNFQKAAKSFSLKISDSQLGDTAMYFCAFGYSGGGADGLTFGKGTHLIIQP Vbeta: DAGVTQSPTHLIKTRGQQVTLRCSPKSGHDTVSWYQQALGQGPQFIFQYYEEEERQRGNFPDRFSGHQFPNYSSELNVNALLLGDSALYLCASSNEGQGWEAEAFFGQGTRLTVV |
| no recognition | no recognition | no recognition | no recognition | no recognition | no recognition | no recognition | no recognition | no recognition | no recognition | recognises | R42P3A9 (TCR, V domains shown) Valpha: GIQVEQSPPDLILQEGANSTLRCNFSDSVNNLQWFHQNPWGQLINLFYIPSGTKQNGRLSATTVATERYSLLYISSSQTTDSGVYFCAVHNFNKFYFGSGTKLNVKP Vbeta: AAGVIQSPRHLIKEKRETATLKCYPIPRHDTVYWYQQGPGQDPQFLISFYEKMQSDKGSIPDRFSAQQFSDYHSELNMSSLELGDSALYFCASSLLGQGYNEQFFGPGTRLTVL |
